Article PMC4705653, “Mcm10 coordinates the timely assembly and activation of the replication fork helicase” (Nucleic Acids Research, 2015)

Molecular target: T1, PKA-Mcm3 (radiolabeled) (budding yeast, UniProt P24279 1-971, 32P label on the PKA tag (protein kinase A with [gamma-32P]-ATP))
T1 construct: Mcm3, budding yeast; not shown: PKA tag, N-terminal, kept
Assay: pull-down; 30 pmol GST-tagged protein on Glutathione Sepharose, varying concentrations of 32P-labelled PKA-tagged protein in solution; GST binding buffer (40 mM Tris–HCl pH 7.5, 100 mM NaCl, 0.1 mM EDTA, 10% glycerol, 0.1% Triton X-100, 1 mM DTT, 0.1 mg/ml BSA), 100 μl, 30°C, 10 min; SDS-PAGE and phosphorimaging; in some panels with 5 mM ATP or ATPγS, or with a third labelled protein (Mcm10, Sld3) added
Conditions: both partners purified

T1 sequence (P24279 whole entry): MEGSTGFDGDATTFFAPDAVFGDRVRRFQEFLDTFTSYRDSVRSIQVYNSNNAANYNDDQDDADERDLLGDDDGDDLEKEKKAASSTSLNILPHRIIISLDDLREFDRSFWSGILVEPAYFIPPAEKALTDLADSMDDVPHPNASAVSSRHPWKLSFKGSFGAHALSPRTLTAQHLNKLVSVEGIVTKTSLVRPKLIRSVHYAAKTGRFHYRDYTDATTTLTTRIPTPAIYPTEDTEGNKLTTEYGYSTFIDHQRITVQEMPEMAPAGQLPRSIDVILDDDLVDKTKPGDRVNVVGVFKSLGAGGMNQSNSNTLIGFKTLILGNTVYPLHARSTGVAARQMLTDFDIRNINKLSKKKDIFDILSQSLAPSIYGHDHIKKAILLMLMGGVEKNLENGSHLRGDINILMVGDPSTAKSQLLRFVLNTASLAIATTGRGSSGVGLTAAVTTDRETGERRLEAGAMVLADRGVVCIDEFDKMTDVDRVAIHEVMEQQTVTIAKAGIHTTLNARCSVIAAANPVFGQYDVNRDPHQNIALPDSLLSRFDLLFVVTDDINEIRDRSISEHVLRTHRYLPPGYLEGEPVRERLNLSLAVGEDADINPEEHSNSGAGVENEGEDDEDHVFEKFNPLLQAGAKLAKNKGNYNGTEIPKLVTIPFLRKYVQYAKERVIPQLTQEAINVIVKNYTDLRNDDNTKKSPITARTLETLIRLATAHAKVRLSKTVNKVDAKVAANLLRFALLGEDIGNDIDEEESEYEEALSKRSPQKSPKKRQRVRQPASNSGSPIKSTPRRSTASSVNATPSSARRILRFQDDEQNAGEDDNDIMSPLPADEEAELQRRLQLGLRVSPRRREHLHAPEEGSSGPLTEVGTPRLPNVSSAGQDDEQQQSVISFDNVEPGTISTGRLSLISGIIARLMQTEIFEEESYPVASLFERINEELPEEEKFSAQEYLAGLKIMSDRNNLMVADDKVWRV

B1: GST-Mcm10 (natural protein, budding yeast, UniProt P32354 1-571, looked up)
chain: MNDPREILAVDPYNNITSDEEDEQAIARELEFMERKRQALVERLKRKQEFKKPQDPNFEAIEVPQSPTKNRVKVGSHNATQQGTKFEGSNINEVRLSQLQQQPKPPASTTTYFMEKFQNAKKNEDKQIAKFESMMNARVHTFSTDEKKYVPIITNELESFSNLWVKKRYIPEDDLKRALHEIKILRLGKLFAKIRPPKFQEPEYANWATVGLISHKSDIKFTSSEKPVKFFMFTITDFQHTLDVYIFGKKGVERYYNLRLGDVIAILNPEVLPWRPSGRGNFIKSFNLRISHDFKCILEIGSSRDLGWCPIVNKKTHKKCGSPINISLHKCCDYHREVQFRGTSAKRIELNGGYALGAPTKVDSQPSLYKAKGENGFNIIKGTRKRLSEEEERLKKSSHNFTNSNSAKAFFDEKFQNPDMLANLDNKRRKIIETKKSTALSRELGKIMRRRESSGLEDKSVGERQKMKRTTESALQTGLIQRLGFDPTHGKISQVLKSSVSGSEPKNNLLGKKKTVINDLLHYKKEKVILAPSKNEWFKKRSHREEVWQKHFGSKETKETSDGSASDLEII
notes: Mcm10, budding yeast, full length PCR product in SpeI/XhoI sites of pET-41; source: cloned in pET-41 vector; not shown: GST, N-terminal, kept
B1: binds.
